# According to the supplement of paper PMC10567573:
# B1: MATN2 (parent)
# chain: FIVDILQFLDIGPDVTRVGLLQYG
# Variants of: B1
# Test: protein stability index of a GFP-peptide fusion (GPS, HEK-293T) (PSI 1-6); higher = more stable
# Details: c terminus: a fixed tail appended
# 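Note: lentivirally expressed fusions sorted by FACS into six bins by GFP to DsRed ratio, PSI derived from sequencing read proportions per bin multiplied by bin number.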
row,Variant,protein stability index
1,L9T,2.81
2,L9F,3.76
3,L9D,2.93
4,L9P,4.2
5,L9Q,2.47
6,L9A,1.79
7,L9E,1.72
8,L9K,1.84
9,Y23T,3.99
10,Y23M,2.75
11,Y23Q,2.29
12,Y23R,3.61
13,Y23L,1.84
14,V18N,2.16
15,V18C,2.58
16,V18R,1.82
17,V18K,2.05
18,V18P,3.38
19,V18M,2.55
20,V18Q,1.8
21,V18D,2.04
22,V18S,3.5
23,V18F,3.25
24,V15M,4.35

row,Variant,protein stability index
1,V15F,3.1
2,V15P,3.2
3,V15D,4.47
4,V15I,2.16
5,V15A,2.88
6,V15Y,3.39
7,V15L,1.88
8,V15W,2.06
9,V15N,2.49
10,F8N,1.68
11,F8S,2.12
12,F8K,1.06
13,F8P,2.96
14,F8L,2.43
15,F8I,2.65
16,F8G,4.33
17,F8D,2
18,F8V,2.94
19,F8C,2.21
20,F8T,3.44
21,F8Q,2.49
22,T16P,2.42
23,T16G,2.19
24,T16D,2.7

row,Variant,protein stability index
1,T16Y,4.05
2,T16W,3.52
3,T16R,2.33
4,T16L,3.03
5,T16M,1.06
6,G19H,3.51
7,G19T,3.15
8,G19E,3.93
9,G19I,2.67
10,G19W,2.62
11,G19A,2.26
12,G19V,2.69
13,G19S,2.33
14,G19P,2.58
15,G19M,3.24
16,G19D,3.21
17,G19L,3.83
18,G19C,1.32
19,G19Q,2.7
20,P13W,2.61
21,P13Q,4
22,P13K,2.15
23,P13V,2.93
24,P13F,1.91

row,Variant,protein stability index
1,P13S,2.69
2,P13E,2.72
3,P13H,2.73
4,P13A,3.91
5,P13I,2.79
6,P13N,3.21
7,P13M,2.4
8,R17V,3.47
9,R17Y,3.22
10,R17I,2.77
11,R17N,2.75
12,R17M,2.05
13,R17F,2.23
14,R17G,2.07
15,R17L,3.37
16,R17A,3.59
17,R17S,1.03
18,R17C,2.86
19,L6W,3.3
20,L6Y,2.87
21,G12C,2.76
22,G12I,2.79
23,G12T,3.93
24,G12R,4.05

row,Variant,protein stability index
1,G12L,2.63
2,G12D,2.56
3,G12H,3.69
4,G12M,2.11
5,G12S,2.61
6,G12F,1.9
7,G12Q,2
8,G12N,3.36
9,L21S,2.57
10,L21H,2.01
11,L21F,2.62
12,L21P,4.3
13,L21I,2.79
14,L21A,2.8
15,L21K,2.13
16,L21C,3.73
17,L21E,3.73
18,L21G,3.3
19,L21T,2.95
20,L21W,3.27
21,Q7Y,3.34
22,Q7E,3.38
23,Q7C,2.24
24,Q7T,3.12

row,Variant,protein stability index
1,Q7D,3.01
2,Q7S,2.27
3,Q7K,3.78
4,Q7P,2.12
5,Q7H,1.98
6,Q7A,3.4
7,G24E,1.99
8,G24W,3.04
9,G24L,4.05
10,G24F,3.31
11,G24R,2.18
12,G24A,2.27
13,G24K,1.81
14,G24I,3.62
15,G24H,3.37
16,L20F,2.92
17,L20N,3.71
18,L20W,3.97
19,L20Y,3.45
20,L20V,4
21,L20A,2.25
22,L20G,3.72
23,L20C,1.87
24,L20R,1.79

row,Variant,protein stability index
1,L20H,2.86
2,D14H,2.17
3,D14E,4.71
4,D14Y,2.6
5,D14P,3.06
6,D14I,3.22
7,D14N,3.04
8,D14A,2.27
9,D14S,2.67
10,Q22S,3.08
11,Q22K,2.98
12,Q22M,2.53
13,Q22A,2.48
14,Q22F,3.25
15,Q22Y,4.14
16,Q22G,3.55
17,Q22V,3.57
18,Q22N,1.93
19,I11L,2.53
20,I11Q,2.77
21,I11K,3.5
22,I11H,4.42
23,I11N,2.49
